# Assay results published in paper PMC8617272.
# Target: AdeB from Acinetobacter baumannii (RND transporter subunit of the AdeABC efflux pump) (Acinetobacter baumannii AYE)
# Assay: native gel or EMSA + other: negative stain electron microscopy; AdeB reconstituted into Salipro Nanodiscs
substance,measurement,value
AdeB from Acinetobacter baumannii (RND transporter subunit of the AdeABC efflux pump) (natural protein),stoichiometry N,3
